# In paper PMC3821859, “Role of the Acidic Tail of High Mobility Group Protein B1 (HMGB1) in Protein Stability and DNA Bending”:
# Key:
# [1] = target: HMGB1 (Homo sapiens, UniProt P09429 1-215); test: fluorescence anisotropy; 50 nM DNA; sigmoidal dose-response fit; 10 mM Tris-HCl pH 7.5, 50 mM NaCl, 0.5 mM DTT, 0.1 mM EDTA, 5% glycerol; 25 °C (anisotropy); details: protein: recombinant; tags: N-terminal 6xHis with TEV site, not removed; label: 5'-6-FAM on complementary strand; blunt
# [2] = target: HMGB1ΔC (Homo sapiens, UniProt P09429 1-185, del186-215); test: as above; details: protein: recombinant; tags: N-terminal 6xHis with TEV site, not removed; label: 5'-6-FAM on complementary strand; blunt
# Chain of HMGB1ΔC (P09429 1-185, stated change not applied): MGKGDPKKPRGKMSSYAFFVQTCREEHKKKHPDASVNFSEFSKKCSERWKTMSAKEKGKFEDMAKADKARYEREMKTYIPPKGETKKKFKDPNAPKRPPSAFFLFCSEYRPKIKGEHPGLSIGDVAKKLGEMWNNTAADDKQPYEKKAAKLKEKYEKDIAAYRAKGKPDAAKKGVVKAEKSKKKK
# Chain of HMGB1 (P09429 whole entry): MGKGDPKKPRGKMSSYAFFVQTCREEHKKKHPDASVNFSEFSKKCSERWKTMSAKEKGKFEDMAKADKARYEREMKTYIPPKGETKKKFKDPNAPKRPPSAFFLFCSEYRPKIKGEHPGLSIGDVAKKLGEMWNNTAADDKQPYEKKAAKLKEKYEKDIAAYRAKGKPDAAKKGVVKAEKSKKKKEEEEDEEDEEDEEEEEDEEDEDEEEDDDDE
binder,measurement,setting,value
"20-bp dsDNA, 6-FAM (dsDNA) DNA 1: TACTGTATGAGCATACAGTA DNA 2: TACTGTATGCTCATACAGTA",Kd,[1],88 ± 5 nM
same,Kd,[2],72 ± 4 nM
